The target of the test is receptor-binding domain (RBD) of the wild-type SARS-CoV-2 spike protein (319-541 aa) (SARS-CoV-2, UniProt P0DTC2). As to the kind of experiment: cryo-EM structure. The settings on record: both partners purified.

We go through one molecule from paper PMC10303109 (Molecules, 2023).

B1: Fab domain of the antibody REGN10987 (Fab, V domains shown)
VH: QVQLVESGGGVVQPGRSLRLSCAASGFTFSNYAMYWVRQAPGKGLEWVAVISYDGSNKYYADSVKGRFTISRDNSKNTLYLQMNSLRTEDTAVYYCASGSDYGDYLLVYWGQGTLVTVSS
VL: QSALTQPASVSGSPGQSITISCTGTSSDVGGYNYVSWYQQHPGKAPKLMIYDVSKRPSGVSNRFSGSKSGNTASLTISGLQSEDEADYYCNSLTSISTWVFGGGTKLTVL
For the molecule B1, the binding result was “binds”.
